Here are results for 17 sequences from the nanobody polyreactivity screen of Harvey et al. (2022).

The nature of this data set: yeast display, Sf9 membrane polyspecificity reagent, FACS + sequencing; frameworks hold sequencing errors. In outline:
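Using colony PCR, genes from sorted yeast display clones were amplified, then sequenced on MiSeq at 2 × 250 and filtered by CDR length. The clones had been stained with 10% biotinylated, detergent-solubilized Sf9 membrane reagent for 1 hour at 4 °C and sorted by FACS into low and high (top ~1%) gates on anti-HA and streptavidin fluorescence. Polyreactivity labels come from the gate of origin.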
In the case of “QVQLVESGGGLVQAGGSLRLSCAASGYTFENYVKGWYSQAPGKERELVAAISSRGGSTYYADSVKGRFTISRDNAKNTVYLQMNSLKPEDTAVYYCAARARQTGPYRSRYNYWGQGTQVTVSS”, the “polyreactivity (PSR sort gate)” value is “high polyreactivity”.

As to “QVHLVESGGGLVQAGGSLRLSSAASGITFWHNTMGWYRQAPGKERELVAAISWTGGRTYYADSVKGRFTISRDNAKNTVYLQMNSLKPEDTAVFSCAADFSWTPCGNYDSWGQGTQVTVSS”, the “polyreactivity (PSR sort gate)” value is given as “low polyreactivity”.

With “QVQLVESGGGLVQAGGSLRLSCAASGRTFGLYAMGWYRQAPGKERELVAAISRSGGRTYYADSVKGRFTISRDNAKNTVYLQMNSLKPEDTAVYYCSTYYDRASYRYDYWGQGTQETVSS”, the “polyreactivity (PSR sort gate)” value was “high polyreactivity”.

As to “QVQLVDSCGGLVQAGGSLRLSCYDSGSTFPYKAMGWYRQAPGKERELVAAITSGASTNYADSVKGRFTISRDNAKNTVYLQMNSLTPEDTAVYYCAAQSYGKRIWSPRFQLNYWGQGTQVTVSS”, the “polyreactivity (PSR sort gate)” value is given as “low polyreactivity”.

Take “QVQLVESGGVLVQAGVSLRLSCAASGRTFFRYTMGWYRQAPGKERELVAAISRSDGSTYYADSVKGRFTISRDNAKNTVYLQMNSLKPEDTAVYYCAKSLPSGYYYWGQGTQVTVSS”: the “polyreactivity (PSR sort gate)” value is listed as “low polyreactivity”.

As to “QVQLVESGGGLVQAGGSLRLSCAASGRTFYKNTMGWYRQAPGKERELVATITRRGGTTYYADSVKGRFTISRDNAKNTVYLQMNSLKPEDTAVYYCAKDASTEKYDYWGQGTQVTVSS”, the “polyreactivity (PSR sort gate)” value is given as “low polyreactivity”.

Regarding “QVQLVESGGGLVQAGGSLRLSCAASGSIFGRNAMGWYRQEPGKERELVARISYIGGSTYYADSVKGRFTISRDNAKNTVYLQMNSLKPEDTAVYYCAKRYGFRYKRMDYWGQGTQVTVSS”, the “polyreactivity (PSR sort gate)” value is “low polyreactivity”.

Take “QVQLVESGGGLVQAGGSLRLSCAASGSIFEKNAMGWYRQEPGKEWELFAAISSSGGRTNYADSVKGRFTISRDNAKNTVYLHMNSLKPEDTAVYYCAAYRRGHRYTGYEYWGQGTQVTVSS”: the “polyreactivity (PSR sort gate)” value was “high polyreactivity”.

Regarding “QVQLVESGGGLVQAGGSLRLSCAASGNIFSVYAMGWYRKAPGKERELVAAISSSGGRTYYADSVKGRFTISRDNEKNTVYLHMNSLKPEDTAVYYCAARSYTGQFVYWGQGTQVTVSS”, the “polyreactivity (PSR sort gate)” value is “high polyreactivity”.

Regarding “QVQLVESGGGLVQAGGSLRLSCAASGFIFIINAMGWYRQAPGKERELVAGIRWSGGSTYYADSVKGRFTISRDNAKNTVYLQMNSLKPEDTAVYYCNKDRGSLTLYTYDYWGQGTQVTVSS”, the “polyreactivity (PSR sort gate)” value is on record as “low polyreactivity”.

“QVQLVESGGGLVQAGGSLRLSCAASGRIFKYNAMGWYRQAPGKERELVAVITSGGSTNYADSVKGRFTISRDNAKNTVYLQMNSLKPEDTAVYYCNARRYSTYDYWGQGTQVTVSS”: the “polyreactivity (PSR sort gate)” value is recorded as “high polyreactivity”.

“QVQLVESGGGLVQAGGSLRLSCAASGRTFHRYAMGWYRQAPGKERELVAAINWRGGSTYYADSVKGRFTISRDNAKNTVYLQMNILKPEDTEVYYCAAKTTTPYRYIYYYWGQGTQVTVSS”: the “polyreactivity (PSR sort gate)” value is reported as “high polyreactivity”.

For the sequence “QVQLVESGGGLVQAGGSLRLSCAASGSIFVPYGMGWYRKAPGTDRELVAAITFRTTSTYYADSVKGRFTISRDNAKNTVYLQMNSLKPEDTAVYYCNKGDYRTYPYDYWGQGTQVTVSS”, the “polyreactivity (PSR sort gate)” value is given as “low polyreactivity”.

Consider “LVQLLESGGGLVQAGGSLRLSCAASGRIFTGYALGWDRQAPGKDRELVASITWRGASTYYADSVKGRFTISRDNAKTTVFLQKNCLNPEDTAVDYCNVGASARKAYEYWGQGTQVTVSS”, for which the “polyreactivity (PSR sort gate)” value is on record as “high polyreactivity”.

On to “QVQLVESGGGLVQAGGSLRLSCAASGRILDYNAMGWYRQAPGKERELVAAITYTGGDTYYADSVKGRFTISRDNAKNTVYLQMNSLKPEDTAVYYCSADFGPYYRFDYWGQGTQVTVSS”, for which the “polyreactivity (PSR sort gate)” value was “low polyreactivity”.

For “QVQLVESGGGLVQAGGSLRLSCAATGSTFAKYAMCSYRQAPGKERELVASISGSGGSTYYADSVKGRFTISRDNAKNTFYLQMNSLIPEDTAVYYSAARRYVWYYWGQGTQVTVSW”, the “polyreactivity (PSR sort gate)” value is “high polyreactivity”.

On to “QVQLQESGGDLEQAGGSLRLSCTASGTISDVRVMGWYRQAPGKERELVATISYVTITYYADSVKGRFTISRDSEKHRVSADDEPETGRYGGVLLRYYWGLGTQVTVSS”, for which the “polyreactivity (PSR sort gate)” value is reported as “low polyreactivity”.
